Experimental data from patent US20150072922A1, “RNASE 7 ANTIMICROBIAL PEPTIDES” (THE RESEARCH INSTITUTE AT NATIONWIDE CHILDREN'S HOSPITAL, priority 2012, published 2015).
“Also recorded” adds a separate entry of the source.

Tests used:
[1] = tested on: Escherichia coli (UTI89); test: Antimicrobial kill (microdilution) assay, MIC/MBC by CFU count; assay type: cell-based; conditions: for antimicrobial activity against E. coli (in words): MIC/MBC based, mostly compared to full-length RNase 7
Protocol: (§1) The antimicrobial activity of RNase 7 and its fragments was estimated using a microdilution assay. Briefly, test bacteria (10^5) were incubated with several concentrations of RNase 7 and each fragment in 50 μl 0.1×PBS buffer for 3 hours in a 37° C. incubator. Each reaction was plated on the appropriate medium and grew overnight at 37° C. The antimicrobial activity was determined by the number of colony-forming units (CFUs) the following day. The minimum inhibition concentration (MIC) is defined as the lowest concentration that inhibits the growth of 90% of the inoculation and the minimum bactericidal concentration (MB C) is defined as the lowest concentration at which less than 99.99% of the initial inoculum is viable.
(§2) Antimicrobial activities of the recombinant peptides were estimated with a microdilution assay. Briefly, the test bacteria (10^4 CFUs) were incubated with various concentrations of RNase 7 and each fragment in 50 ul 0.1×PBS buffer for 3 hours at 37° C. After incubation on Agar plates overnight at 37° C., the number of colony-forming units (CFUs) at each peptide concentration was determined. Using untreated bacterial aliquots as baseline, the minimum inhibition concentration (MIC) was defined as the lowest concentration that inhibits the growth of 90% of the inoculation, and the minimum bactericidal concentration (MBC) was defined as the lowest concentration at which less than 99.99% of the initial inoculum is viable.

[2] = tested on: Staphylococcus saprophyticus (ATCC 15305); test: as above; assay type: cell-based; conditions: for antimicrobial activity against S. saprophyticus (in words): MIC/MBC based, mostly compared to full-length RNase 7
Protocol: as §1, §2

[3] = tested on: Proteus mirabilis (ATCC 7002); test: as above; assay type: cell-based; conditions: 3 hours, 0.1×PBS
Protocol: Uropathogenic Escherichia coli (UTI89) was grown in Luria broth (LB) medium and plated on LB-agar. Uropathogenic Staphylococcus saprophyticus (ATCC 15305) was grown in LB and plated on Trypticase Soy Agar with 5% sheep blood (Fisher Scientific, Pittsburgh, Pa., USA). Uropathogenic Proteus mirabilis (ATCC 7002) was grown in LB and plated on MacConkey II Agar (Fisher Scientific, Pittsburgh, Pa., USA). These organisms were chosen as the primary organisms that account for a majority of Gram-negative and Gram-positive urinary tract infections (UTI). Anti-RNase 7 antibody was generated in rabbit with recombinant human RNase 7 (Biomatik, Wilmington, Del., USA)
as §2

[4] = tested on: E. coli (UTI-89); test: Live/Dead BacLight bacterial viability assay (confocal imaging); assay type: cell-based, Escherichia coli; conditions: 1 μM
Protocol: (§3) Bacterial viability assays were performed using a Live/Dead BacLight™ bacterial viability kit (Invitrogen). Uropathogenic E. coli (UTI-89) and S. Saprophyticus (ATCC 15305) were grown at 37° C. to the mid-log phase, centrifuged at 5000 rpm for 5 min, and resuspended in water with an OD=0.2. Bacteria were stained using a 1:1 mixture of a green-fluorescent STY®9 dye and a red-fluorescent propidium iodide dye as provided in the Live/Dead BacLight™ bacterial viability kit. SYTO®9 labels both live and dead bacteria. Propidium iodide penetrates only bacteria with damaged membranes. Consequently, live bacteria with intact membranes fluoresce green, while dead bacteria with damaged membranes fluoresce red. […]. 50 uL of stained uropathogenic bacteria was mixed with recombinant RNase 7 or RNase 7 fragments to achieve a final concentration of 3 uM and 1 uM. 10 uL of this mixture was added to poly-1-lysine coated microscope slides (Polysciences, Inc, Warrington, Pa., USA) and confocal images of the bacteria were obtained using a Zeiss LSM 700 confocal laser scanning microscope (Carl Zeiss LLC, Thornwood, N.Y., USA). SYTO®9 was excited using an argon laser (448-500 nm emission collected) and propidium iodide was excited using an orange diode (555-600 nm emission collected). Samples were imaged in triplicate.
(§4) For images of intact versus disrupted membranes of dying/dead cells, the Live/Dead BacLight™ bacterial viability kit (Invitrogen) was used. E. coli and S. saprophyticus were grown at 37° C. to the mid-log phase, centrifuged at 5000 rpm for 5 min, and resuspended in water to an OD600 of 0.2. Bacteria were incubated in a 1:1 mixture of Live/Dead BacLight™ bacterial viability assay. A bacterial aliquot of 50 μL was mixed with recombinant RNase 7 or recombinant fragments to achieve a final concentration of 1 μM. Ten microliters of this mixture was added to poly-1-lysine coated microscope slides (Polysciences, Inc, Warrington, Pa., USA), and images were obtained in triplicate using a Zeiss LSM 710 confocal laser scanning microscope (Carl Zeiss LLC, Thornwood, N.Y., USA).

[5] = tested on: S. Saprophyticus (ATCC 15305); test: as above; assay type: cell-based, Staphylococcus saprophyticus; conditions: 1 μM
Protocol: as §3, §4

[6] = tested on: E. coli; test: Urinary condition functional assay (OD600 growth curves); assay type: cell-based, Escherichia coli
Protocol: (§5) Because the urinary environment can have significant variation in salt concentration, ionic composition, and pH, an antimicrobial/bacteriostatic assay was performed to evaluate if pH, calcium, or ionic strength affects the activity of full-length RNase7 or its fragments. The highest activity fragment F:1-97 and lowest activity fragment F:72-128 for these experiments were chosen. Bacteria were inoculated in 1% peptone water and growth to log phase with OD600=0.5. Bacteria were diluted to 1:10 and 1 μl added to 100 μl of 1% peptone water with various pH, CaCl2 or NaCl concentrations that correspond to a physiologic range present in the urine in a 96-well flat bottom plate (Thermo Scientific, Nunc, Worcester, Mass.). To each well, 2 μM of RNase7 or its fragments were added.
(§6) Bacterial growth was monitored using an Absorbance microplate reader (BioTek Instruments, Winooski, Vt.) at a final volume of 110 μl. The turbidity of the culture was measured and recorded at t=0 and every 20 min thereafter for 10 hours using the absorbance at 600 nm (OD600). The values of OD600 values were plotted against times to generate growth curves.

[7] = tested on: S. saprophyticus; test: as above; assay type: cell-based, Staphylococcus saprophyticus
Protocol: as §5, §6

[8] = tested on: Proteus mirabilis; test: as above; assay type: cell-based
Protocol: as §5, §6

[9] = compared to full-length RNase 7
[10] = lowest concentration that inhibits the growth of 90% of the inoculation, 3 hours, 0.1×PBS
[11] = minimum bactericidal concentration, 3 hours, 0.1×PBS

B1: F:1-97: recombinant N-terminal RNase 7 fragment, amino acids 1 to 97 (SEQ ID NO: 5), N-terminal His tag (protein, listed as Homo sapiens)
chain: KPKGMTSSQWFKIQHMQPSPQACNSAMKNINKHTKRCKDLNTFLHEPFSSVAATCQTPKIACKNGDKNCHQSHGPVSLTMCKLTSGKYPNCRYKEKR
modifications: N-terminal His tag
antimicrobial activity against E. coli (in words) [1]: decreased relative to the full-length peptide | antimicrobial activity against E. coli (in words) ([1]; listed as 1-97): strongest activity; also recorded: increased activity against both strains | MICs and MBCs fold lower than full length protein, E. coli [1, 9]: at least 4 fold | E. coli MIC [1, 10]: 0.07 µM | E. coli MBC [1, 11]: 0.14 µM | antimicrobial activity against S. saprophyticus (in words) [2]: decreased relative to the full-length peptide | antimicrobial activity against S. saprophyticus (in words) ([2]; listed as 1-97): increased activity against both strains | MICs and MBCs fold lower than full length protein, S. saprophyticus [2, 9]: at least 4 fold | S. saprophyticus MIC [2, 10]: 0.04 µM | S. saprophyticus MBC [2, 11]: 0.08 µM | P. mirabilis MIC ([3]; lowest concentration that inhibits the growth of 90% of the inoculation): .44 µM | P. mirabilis MBC ([3]; minimum bactericidal concentration): .88 µM | killing of E. coli in Bacterial Viability Assay ([4]; 30 min): killed most of the E. coli and S. saprophyticus | killing of E. coli in Bacterial Viability Assay ([4]; 3 hours): completely dead | killing of S. saprophyticus in Bacterial Viability Assay ([5]; 30 min): killed most of the E. coli and S. saprophyticus | killing of S. saprophyticus in Bacterial Viability Assay ([5]; 3 hours): completely dead | activity on E. coli growth at various pH levels ([6]; 2 μM peptide, 1% peptone water, pH 5, 7, 9, OD600 for 10 hours, FIG. 3): activity pattern comparable to full-length peptide at various pHs | activity on E. coli growth at various NaCl titers ([6]; 2 μM peptide, 50, 150, 500 mM NaCl, OD600 for 10 hours, FIG. 4): activity pattern comparable to full-length peptide at various NaCl concentrations | activity on E. coli growth at various CaCl2 titers ([6]; 2 μM peptide, CaCl2 up to 16.25 mM, OD600 for 10 hours, FIG. 5): activity pattern comparable to full-length peptide at various CaCl2 concentrations; also recorded: sensitive to CaCl2 concentrations | activity on S. saprophyticus growth at various NaCl titers ([7]; 2 μM peptide, 50, 150, 500 mM NaCl, OD600 for 10 hours, FIG. 7): diminished in direct proportion to NaCl concentration; also recorded: activity pattern comparable to full-length peptide at various NaCl concentrations | activity on S. saprophyticus growth at various CaCl2 titers ([7]; 2 μM peptide, CaCl2 up to 16.25 mM, OD600 for 10 hours, FIG. 8): sensitive to CaCl2 concentrations; also recorded: activity is inversely related to CaCl2 concentration but more pronounced compared to full length RNase 7 | activity on S. saprophyticus growth at various pH levels ([7]; 2 μM peptide, pH 5, 7, 9, OD600 for 10 hours, FIG. 6): optimal activity at pH 5 | activity on Proteus mirabilis growth at various CaCl2 titers ([8]; 2 μM peptide, 1.25, 7.5, 16.25 mM CaCl2, OD600 for 10 hours, FIG. 11): unchanged activity under all conditions against P. mirabilis; also recorded: activity is not significantly altered by CaCl2 concentrations | activity on Proteus mirabilis growth at various NaCl titers ([8]; 2 μM peptide, 50, 150, 500 mM NaCl, OD600 for 10 hours, FIG. 10): activity pattern comparable to full-length peptide at various NaCl concentrations | activity on Proteus mirabilis growth at various pH levels ([8]; 2 μM peptide, pH 5, 7, 9, OD600 for 10 hours, FIG. 9): optimal activity at pH 5 (gray squares), but less compared to full length
